Measured values from patent publication US20080039419.

T1: synthetic peptide representing the β1 integrin cytoplasmic domain, P05556
T1 chain: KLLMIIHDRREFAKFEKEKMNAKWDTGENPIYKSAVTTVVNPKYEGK

T2: synthetic peptide representing the β3 integrin cytoplasmic domain, P05106
T2 chain: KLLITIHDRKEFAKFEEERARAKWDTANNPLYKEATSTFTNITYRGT

B1: integrin linked kinase (ILK), full length (protein)
chain: MDDIFTQCREGNAVAVRLWLDNTENDLNQGDDHGFSPLHWACREGRSAVVEMLIMRGARINVMNRGDDTPLHLAASHGHRDIVQKLLQYKADINAVNEHGNVPLHYACFWGQDQVAEDLVANGALVSICNKYGEMPVDKAKAPLRELLRERAEKMGQNLNRIPYKDTFWKGTTRTRPRNGTLNKHSGIDFKQLNFLTKLNENHSGELWKGRWQGNDIVVKVLKVRDWSTRKSRDFNEECPRLRIFSHPNVLPVLGACQSPPAPHPTLITHWMPYGSLYNVLHEGTNFVVDQSQAVKFALDMARGMAFLHTLEPLIPRHALNSRSVMIDEDMTARISMADVKFSFQCPGRMYAPAWVAPEALQKKPEDTNRRSADMWSFAVLLWELVTREVPFADLSNMEIGMKVALEGLRPTIPPGISPHVCKLMKICMNEDPAKRPKFDMIVPILEKMQDK
B2: GST-ILK^232 (GST fusion of ILK amino acid residues 132-451) (protein)
chain: YGEMPVDKAKAPLRELLRERAEKMGQNLNRIPYKDTFWKGTTRTRPRNGTLNKHSGIDFKQLNFLTKLNENHSGELWKGRWQGNDIVVKVLKVRDWSTRKSRDFNEECPRLRIFSHPNVLPVLGACQSPPAPHPTLITHWMPYGSLYNVLHEGTNFVVDQSQAVKFALDMARGMAFLHTLEPLIPRHALNSRSVMIDEDMTARISMADVKFSFQCPGRMYAPAWVAPEALQKKPEDTNRRSADMWSFAVLLWELVTREVPFADLSNMEIGMKVALEGLRPTIPPGISPHVCKLMKICMNEDPAKRPKFDMIVPILEKMQD

How the values were obtained:
[1] = molecular target: T1, synthetic peptide representing the β1 …
[2] = molecular target: T2, synthetic peptide representing the β3 …

Row | Protein | autophosphorylation of ILK in immune complex kinase assay [1] | phosphorylation of the synthetic peptide in ILK immune complex kinase assay (91-3 immunoprecipitates of PC3 lysates) [1] | phosphorylation of the synthetic peptide in ILK immune complex kinase assay (91-3 immunoprecipitates of PC3 lysates) [2] | phosphorylation of the synthetic peptide by recombinant kinase in vitro [1] | phosphorylation of the synthetic peptide by recombinant kinase in vitro [2]
1 | B1 | The β1 peptide selectively inhibited autophosphorylation of ILK in these reactions | The β1 peptide was labeled on serine and threonine residues, with approximately equal stoichiometry | a similar peptide representing the β3 cytoplasmic domain was not detectably labeled by P59ILK | – | –
2 | B2 | – | – | – | The results demonstrating phosphorylation of synthetic β peptides by endogenous ILK are identical to those seen with recombinant GST-ILK^232 | The results demonstrating phosphorylation of synthetic β peptides by endogenous ILK are identical to those seen with recombinant GST-ILK^232
